65 variants from the Human Domainome abundance scans (Beltran et al. 2025) can be followed below.

± gives the uncertainty stated by the source.

B1: Histidine--tRNA ligase, cytoplasmic, residues 8 to 45; numbered along this chain, P12081 (parent)
chain: EELVKLQGERVRGLKQQKASAELIEEEVAKLLKLKAQL

In the series the parent is B1. As to the kind of experiment: abundance fitness (aPCA) (normalised: wild type 0, dead -1); higher = more abundant; growth selection in yeast, the domain comes from the species named. Particulars: Homo sapiens.
In the case of EELVALQGERVRGLKQQKASAELIEEEVAKLLKLKAQL [K5A], the abundance fitness was -0.234 ± 0.085.

With EELVPLQGERVRGLKQQKASAELIEEEVAKLLKLKAQL [K5P], the abundance fitness was -0.54 ± 0.078.

On to EELVSLQGERVRGLKQQKASAELIEEEVAKLLKLKAQL [K5S], for which the abundance fitness was -0.531 ± 0.072.

For the variant EELVQLQGERVRGLKQQKASAELIEEEVAKLLKLKAQL [K5Q], the abundance fitness is -0.019 ± 0.099.

For the variant EELVRLQGERVRGLKQQKASAELIEEEVAKLLKLKAQL [K5R], the abundance fitness was -0.269 ± 0.088.

On to EELVWLQGERVRGLKQQKASAELIEEEVAKLLKLKAQL [K5W], for which the abundance fitness is -0.383 ± 0.13.

Consider EELVLLQGERVRGLKQQKASAELIEEEVAKLLKLKAQL [K5L], for which the abundance fitness is -0.394 ± 0.071.

For EELVGLQGERVRGLKQQKASAELIEEEVAKLLKLKAQL [K5G], the abundance fitness was -0.407 ± 0.07.

On to EELVFLQGERVRGLKQQKASAELIEEEVAKLLKLKAQL [K5F], for which the abundance fitness is -0.443 ± 0.084.

Regarding EELVILQGERVRGLKQQKASAELIEEEVAKLLKLKAQL [K5I], the abundance fitness was -0.436 ± 0.099.

Regarding EELVHLQGERVRGLKQQKASAELIEEEVAKLLKLKAQL [K5H], the abundance fitness is -0.223 ± 0.078.

In the case of EELVMLQGERVRGLKQQKASAELIEEEVAKLLKLKAQL [K5M], the abundance fitness is -0.143 ± 0.11.

With EELVELQGERVRGLKQQKASAELIEEEVAKLLKLKAQL [K5E], the abundance fitness was -0.026 ± 0.1.

For the variant EELVCLQGERVRGLKQQKASAELIEEEVAKLLKLKAQL [K5C], the abundance fitness is -0.531 ± 0.13.

In the case of EELVVLQGERVRGLKQQKASAELIEEEVAKLLKLKAQL [K5V], the abundance fitness was -0.611 ± 0.084.

In the case of EELVYLQGERVRGLKQQKASAELIEEEVAKLLKLKAQL [K5Y], the abundance fitness is -0.27 ± 0.079.

Turning to EELVKLQGERVDGLKQQKASAELIEEEVAKLLKLKAQL [R12D], the abundance fitness worked out at 0.122 ± 0.088.

On to EELVKLQGERVAGLKQQKASAELIEEEVAKLLKLKAQL [R12A], for which the abundance fitness worked out at 0.218 ± 0.083.

As for EELVKLQGERVFGLKQQKASAELIEEEVAKLLKLKAQL [R12F], the abundance fitness is -0.172 ± 0.089.

Take EELVKLQGERVEGLKQQKASAELIEEEVAKLLKLKAQL [R12E]: the abundance fitness is 0.231 ± 0.099.

In the case of EELVKLMGERVRGLKQQKASAELIEEEVAKLLKLKAQL [Q7M], the abundance fitness is -0.452 ± 0.092.

EELVKLSGERVRGLKQQKASAELIEEEVAKLLKLKAQL [Q7S]: the abundance fitness was -0.433 ± 0.068.

Turning to EELVKLAGERVRGLKQQKASAELIEEEVAKLLKLKAQL [Q7A], the abundance fitness was -0.348 ± 0.082.

Take EELVKLGGERVRGLKQQKASAELIEEEVAKLLKLKAQL [Q7G]: the abundance fitness was -0.619 ± 0.09.

Regarding EELVKLKGERVRGLKQQKASAELIEEEVAKLLKLKAQL [Q7K], the abundance fitness was -0.693 ± 0.18.

For the variant EELVKLVGERVRGLKQQKASAELIEEEVAKLLKLKAQL [Q7V], the abundance fitness is -0.379 ± 0.091.

For the variant EELVKLEGERVRGLKQQKASAELIEEEVAKLLKLKAQL [Q7E], the abundance fitness was -1.63 ± 0.36.

As to EELVKLWGERVRGLKQQKASAELIEEEVAKLLKLKAQL [Q7W], the abundance fitness was -1.15 ± 0.12.

Regarding EELVKLFGERVRGLKQQKASAELIEEEVAKLLKLKAQL [Q7F], the abundance fitness is -0.73 ± 0.11.

As to EELVKLHGERVRGLKQQKASAELIEEEVAKLLKLKAQL [Q7H], the abundance fitness was -0.507 ± 0.086.

As for EELVKLTGERVRGLKQQKASAELIEEEVAKLLKLKAQL [Q7T], the abundance fitness is -0.357 ± 0.073.

For EELVKLRGERVRGLKQQKASAELIEEEVAKLLKLKAQL [Q7R], the abundance fitness is -0.649 ± 0.081.

As for EELVKLDGERVRGLKQQKASAELIEEEVAKLLKLKAQL [Q7D], the abundance fitness was -0.492 ± 0.09.

For EELVKLPGERVRGLKQQKASAELIEEEVAKLLKLKAQL [Q7P], the abundance fitness was -0.595 ± 0.078.

EELVKLIGERVRGLKQQKASAELIEEEVAKLLKLKAQL [Q7I]: the abundance fitness was -0.526 ± 0.083.

Take EELVKLLGERVRGLKQQKASAELIEEEVAKLLKLKAQL [Q7L]: the abundance fitness was -0.515 ± 0.074.

With EELVKLCGERVRGLKQQKASAELIEEEVAKLLKLKAQL [Q7C], the abundance fitness was -0.616 ± 0.096.

For the variant EELVKLNGERVRGLKQQKASAELIEEEVAKLLKLKAQL [Q7N], the abundance fitness was -0.485 ± 0.12.

With EELVKLYGERVRGLKQQKASAELIEEEVAKLLKLKAQL [Q7Y], the abundance fitness was -0.706 ± 0.091.

Consider EELVKLQGEVVRGLKQQKASAELIEEEVAKLLKLKAQL [R10V], for which the abundance fitness is 0.039 ± 0.084.

Consider EELVKLQGELVRGLKQQKASAELIEEEVAKLLKLKAQL [R10L], for which the abundance fitness is -0.026 ± 0.073.

For EELVKLQGENVRGLKQQKASAELIEEEVAKLLKLKAQL [R10N], the abundance fitness was -0.198 ± 0.08.

On to EELVKLQGEEVRGLKQQKASAELIEEEVAKLLKLKAQL [R10E], for which the abundance fitness is -0.044 ± 0.093.

For the variant EELVKLQGEIVRGLKQQKASAELIEEEVAKLLKLKAQL [R10I], the abundance fitness was -0.035 ± 0.13.

In the case of EELVKLQGEHVRGLKQQKASAELIEEEVAKLLKLKAQL [R10H], the abundance fitness is -0.131 ± 0.12.

Turning to EELVKLQGEDVRGLKQQKASAELIEEEVAKLLKLKAQL [R10D], the abundance fitness is -0.084 ± 0.14.

Regarding EELVKLQGEPVRGLKQQKASAELIEEEVAKLLKLKAQL [R10P], the abundance fitness turned out to be 0.053 ± 0.081.

As to EELVKLQGESVRGLKQQKASAELIEEEVAKLLKLKAQL [R10S], the abundance fitness was -0.213 ± 0.074.

For the variant EELVKLQGEQVRGLKQQKASAELIEEEVAKLLKLKAQL [R10Q], the abundance fitness is -0.097 ± 0.095.

Turning to EELVKLQGETVRGLKQQKASAELIEEEVAKLLKLKAQL [R10T], the abundance fitness amounted to 0.013 ± 0.081.

EELVKLQGEMVRGLKQQKASAELIEEEVAKLLKLKAQL [R10M]: the abundance fitness is -0.06 ± 0.098.

On to EELVKLQGEFVRGLKQQKASAELIEEEVAKLLKLKAQL [R10F], for which the abundance fitness is -0.288 ± 0.1.

As for EELVKLQGEKVRGLKQQKASAELIEEEVAKLLKLKAQL [R10K], the abundance fitness came to 0.245 ± 0.12.

Regarding EELVKLQGECVRGLKQQKASAELIEEEVAKLLKLKAQL [R10C], the abundance fitness is -0.379 ± 0.087.

With EELVKLQGEGVRGLKQQKASAELIEEEVAKLLKLKAQL [R10G], the abundance fitness is -0.229 ± 0.081.

With EELVKLQGEWVRGLKQQKASAELIEEEVAKLLKLKAQL [R10W], the abundance fitness is -0.887 ± 0.12.

Consider EELVKLQGEYVRGLKQQKASAELIEEEVAKLLKLKAQL [R10Y], for which the abundance fitness was -0.125 ± 0.12.

Regarding EELWKLQGERVRGLKQQKASAELIEEEVAKLLKLKAQL [V4W], the abundance fitness was -0.468 ± 0.12.

For EELYKLQGERVRGLKQQKASAELIEEEVAKLLKLKAQL [V4Y], the abundance fitness amounted to 0.077 ± 0.11.

Regarding EELVKFQGERVRGLKQQKASAELIEEEVAKLLKLKAQL [L6F], the abundance fitness was -0.102 ± 0.1.

On to EELVKHQGERVRGLKQQKASAELIEEEVAKLLKLKAQL [L6H], for which the abundance fitness amounted to 0.051 ± 0.099.

As for EELVKGQGERVRGLKQQKASAELIEEEVAKLLKLKAQL [L6G], the abundance fitness is -0.171 ± 0.12.

Regarding EELVKVQGERVRGLKQQKASAELIEEEVAKLLKLKAQL [L6V], the abundance fitness was found to be 0.054 ± 0.078.

On to EELVKQQGERVRGLKQQKASAELIEEEVAKLLKLKAQL [L6Q], for which the abundance fitness was determined as 0.213 ± 0.09.

For EELVKAQGERVRGLKQQKASAELIEEEVAKLLKLKAQL [L6A], the abundance fitness came out at 0.194 ± 0.071.
